From patent US20230124669A1 (ADAGENE, published 2023)
Each block holds one binder with its values, some of them ahead of it.

Legend:
[1] = biological target: T1, Human CD137 (SPR analyte) (human, UniProt Q07011 24-186, limits assumed); test: SPR (Biacore T200), antibody captured by anti-human IgG on CM5 chip, antigen injected as analyte, 1:1 Langmuir fit
T1 construct: also called CD137H
Description: (§1) Biacore T200 (GE Healthcare) was used as a high performance system for real-time biomolecular interaction analysis, using surface plasmon resonance technology (“SPR”). During the measurement, anti-human IgG monoclonal antibody from the Human Antibody Capture Kit provided by Biacore was immobilized on CM5 chips, and IgG sample was injected onto sensor chip. Analytes were injected onto IgG captured flow cell for binding kinetic analysis in HBS-EP buffer.

Human PDL1 (SPR analyte) = biological target: T2, Human PDL1 (SPR analyte) (human, UniProt Q9NZQ7 19-238, limits assumed); test: as above
T2 construct: also called PDL1H
Description: as §1

[2] = biological target: T3, mouse PDL1 expressed on cells (mouse, UniProt Q9EP73 19-290); test: flow cytometry, antigen transiently expressed on yeast or HEK293F cells, IgG at 100 nM, Alexa Fluor 647 anti-human Fc detection (FIG. 13)
T3 construct: whole, on cells
Description: (§2) The affinity of antibodies was also assessed against human, monkey and mouse CD137 or PDL1 that were transiently expressed on the surface of yeast or HEK293F cells. Briefly, yeast or HEK293F cells were transfected with a plasmid expressing human, monkey or mouse CD137 or PDL1. After 48 hours, the transfected cells were harvested and then washed. Cells were then incubated with IgGs (each at 100 nM) at 4° C. in the shaking bed for 1 hour shaking at 300 rpm, protected from light. For simultaneously binding, cell were incubated with biotinylated human CD137 or PDL1 protein fused with human Fc fragment, and SA-PE (streptavidin, phycoerythrin conjugated). For cross-reactivity, cells were incubated with Alexa Fluor 647 conjugated mouse anti-human Fc antibodies. The mixtures were incubated at 4° C. in the shaking bed for 30 minutes shaking at 300 rpm, protected from light. The cells were washed once prior to analysis by flow cytometry (Beckman CytoFlex).

[3] = biological target: T4, mouse CD137 expressed on cells (mouse, UniProt P20334 24-256); test: as above
T4 construct: whole, on cells
T4 sequence (looked up): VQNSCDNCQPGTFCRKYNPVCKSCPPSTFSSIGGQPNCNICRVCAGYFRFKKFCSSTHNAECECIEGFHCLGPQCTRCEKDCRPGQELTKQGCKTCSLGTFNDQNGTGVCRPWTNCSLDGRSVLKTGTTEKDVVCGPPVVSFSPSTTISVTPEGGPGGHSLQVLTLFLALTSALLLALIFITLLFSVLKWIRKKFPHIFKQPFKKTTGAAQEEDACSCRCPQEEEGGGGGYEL
Description: as §2

T2 sequence (Q9NZQ7 19-238 limits assumed): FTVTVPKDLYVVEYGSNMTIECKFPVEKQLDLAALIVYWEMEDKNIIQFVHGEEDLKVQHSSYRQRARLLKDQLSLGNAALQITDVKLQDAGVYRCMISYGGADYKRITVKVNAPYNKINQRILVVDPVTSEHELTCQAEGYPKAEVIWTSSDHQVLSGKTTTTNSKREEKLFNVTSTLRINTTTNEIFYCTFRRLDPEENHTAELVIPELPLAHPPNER
T3 sequence (Q9EP73 19-290): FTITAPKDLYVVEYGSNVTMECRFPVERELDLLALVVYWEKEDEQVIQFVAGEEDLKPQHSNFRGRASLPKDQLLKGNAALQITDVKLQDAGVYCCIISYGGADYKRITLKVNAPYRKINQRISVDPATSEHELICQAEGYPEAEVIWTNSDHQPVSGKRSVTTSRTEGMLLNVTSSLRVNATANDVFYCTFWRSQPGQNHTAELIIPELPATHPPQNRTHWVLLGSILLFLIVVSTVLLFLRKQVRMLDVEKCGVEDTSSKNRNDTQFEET

Kd [1]: 3 nM
Kd (Human PDL1 (SPR analyte)): 42 nM
B1: TY22166 (bispecific antibody, human IgG4 S228P, kappa)
heavy: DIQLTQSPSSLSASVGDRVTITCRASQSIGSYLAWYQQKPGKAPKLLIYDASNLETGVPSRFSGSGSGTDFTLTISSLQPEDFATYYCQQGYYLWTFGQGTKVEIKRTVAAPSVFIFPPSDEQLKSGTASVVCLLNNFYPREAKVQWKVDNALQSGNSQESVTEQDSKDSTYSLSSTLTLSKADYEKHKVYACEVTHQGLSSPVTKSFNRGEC
light: EVQLVESGGGLVQPGGSLRLSCAASGFSLSTGGVGVGWIRQAPGKGLEWLALIDWADDKYYSPSLKSRLTISRDNSKNTLYLQLNSLRAEDTAVYYCARGGSDTVIGDWFAYWGQGTLVTVSSASTKGPSVFPLAPCSRSTSESTAALGCLVKDYFPEPVTVSWNSGALTSGVHTFPAVLQSSGLYSLSSVVTVPSSSLGTKTYTCNVDHKPSNTKVDKRVESKYGPPCPPCPAPEFLGGPSVFLFPPKPKDTLMISRTPEVTCVVVDVSQEDPEVQFNWYVDGVEVHNAKTKPREEQFNSTYRVVSVLTVLHQDWLNGKEYKCKVSNKGLPSSIEKTISKAKGQPREPQVYTLPPSQEEMTKNQVSLTCLVKGFYPSDIAVEWESNGQPENCYKTTPPVLDCDGSFFLYSRLTVDKSRWQEGNVFSCSVMHEALHNHYTQKSLSLSLGSGGGSEVQLVESGGGLVQPGGSLRLSCAASGYSISSGYYWGWIRQAPGKCLEWIGIIYPSGGGTNYAQKFQGRVTISRDNSKNTLYLQLNSLRAEDTAVYYCARGGGLGFDYWGQGTLVTVSSGGGGSGGGGSGGGGSGGGGSDIQLTQSPSSLSASVGDRVTITCRASQSIPSFLNWYQQKPGKAPKLLIYAASSLQSGVPSRFSGSGSGTDFTLTISSLQPEDFATYYCQHYISWPRQFTFGCGTKVEIKR
notes: Morrison format: anti-CD137 Fab, anti-PDL1 scFv; IgG4(S228P) with N390C:S400'C; also called CD137 × PDL1 bispecific antibody, format TYF07

Kd [1]: 14.1 nM
Kd (Human PDL1 (SPR analyte)): 6.9 nM
binding result [2]: binds
binding result [3]: binds
B2: TY22121 (bispecific antibody, human IgG1, kappa)
heavy: DIQLTQSPSSLSASVGDRVTITCRASQSIPSFLNWYQQKPGKAPKLLIYAASSLQSGVPSRFSGSGSGTDFTLTISSLQPEDFATYYCQHYISWPRQFTFGQGTKVEIKRTVAAPSVFIFPPSDEQLKSGTASVVCLLNNFYPREAKVQWKVDNALQSGNSQESVTEQDSKDSTYSLSSTLTLSKADYEKHKVYACEVTHQGLSSPVTKSFNRGEC
light: not shown
notes: Morrison format: anti-PDL1 Fab, anti-CD137 scFv at the C-terminus of the Fc; IgG1; heavy chain = VH-CH1-hinge-CH2-CH3-linker-scFv; also called PDL1 × CD137 bispecific antibody, format TYF01

Kd [1]: 5.2 nM
Kd (Human PDL1 (SPR analyte)): 7.7 nM
B3: TY22165 (bispecific antibody, human IgG4 S228P, kappa)
heavy: B2 heavy
light: EVQLVESGGGLVQPGGSLRLSCAASGYSISSGYYWGWIRQAPGKGLEWIGIIYPSGGGTNYAQKFQGRVTISRDNSKNTLYLQLNSLRAEDTAVYYCARGGGLGFDYWGQGTLVTVSSASTKGPSVFPLAPCSRSTSESTAALGCLVKDYFPEPVTVSWNSGALTSGVHTFPAVLQSSGLYSLSSVVTVPSSSLGTKTYTCNVDHKPSNTKVDKRVESKYGPPCPPCPAPEFLGGPSVFLFPPKPKDTLMISRTPEVTCVVVDVSQEDPEVQFNWYVDGVEVHNAKTKPREEQFNSTYRVVSVLTVLHQDWLNGKEYKCKVSNKGLPSSIEKTISKAKGQPREPQVYTLPPSQEEMTKNQVSLTCLVKGFYPSDIAVEWESNGQPENCYKTTPPVLDCDGSFFLYSRLTVDKSRWQEGNVFSCSVMHEALHNHYTQKSLSLSLGSGGGSEVQLVESGGGLVQPGGSLRLSCAASGFSLSTGGVGVGWIRQAPGKCLEWLALIDWADDKYYSPSLKSRLTISRDNSKNTLYLQLNSLRAEDTAVYYCARGGSDTVIGDWFAYWGQGTLVTVSSGGGGSGGGGSGGGGSGGGGSDIQLTQSPSSLSASVGDRVTITCRASQSIGSYLAWYQQKPGKAPKLLIYDASNLETGVPSRFSGSGSGTDFTLTISSLQPEDFATYYCQQGYYLWTFGCGTKVEIKR
notes: Morrison format: anti-PDL1 Fab, anti-CD137 scFv; IgG4(S228P) with N390C:S400'C; also called PDL1 × CD137 bispecific antibody, format TYF07

Kd [1]: 7.1 nM
Kd (Human PDL1 (SPR analyte)): 8.1 nM
B4: TY22176 (bispecific antibody, human IgG1, kappa, N297A)
heavy: B2 heavy
light: EVQLVESGGGLVQPGGSLRLSCAASGYSISSGYYWGWIRQAPGKGLEWIGIIYPSGGGTNYAQKFQGRVTISRDNSKNTLYLQLNSLRAEDTAVYYCARGGGLGFDYWGQGTLVTVSSASTKGPSVFPLAPSSKSTSGGTAALGCLVKDYFPEPVTVSWNSGALTSGVHTFPAVLQSSGLYSLSSVVTVPSSSLGTQTYICNVNHKPSNTKVDKRVEPKSCDKTHTCPPCPAPELLGGPSVFLFPPKPKDTLMISRTPEVTCVVVDVSHEDPEVKFNWYVDGVEVHNAKTKPREEQYASTYRVVSVLTVLHQDWLNGKEYKCKVSNKALPAPIEKTISKAKGQPREPQVYTLPPSREEMTKNQVSLTCLVKGFYPSDIAVEWESNGQPENCYKTTPPVLDCDGSFFLYSKLTVDKSRWQQGNVFSCSVMHEALHNHYTQKSLSLSPGSGGGSEVQLVESGGGLVQPGGSLRLSCAASGFSLSTGGVGVGWIRQAPGKCLEWLALIDWADDKYYSPSLKSRLTISRDNSKNTLYLQLNSLRAEDTAVYYCARGGSDTVIGDWFAYWGQGTLVTVSSGGGGSGGGGSGGGGSGGGGSDIQLTQSPSSLSASVGDRVTITCRASQSIGSYLAWYQQKPGKAPKLLIYDASNLETGVPSRFSGSGSGTDFTLTISSLQPEDFATYYCQQGYYLWTFGCGTKVEIKR
notes: Morrison format: anti-PDL1 Fab, anti-CD137 scFv; IgG1 with N390C:S400'C and N297A; also called PDL1 × CD137 bispecific antibody, format TYF04

Kd [1]: 2.7 nM
Kd (Human PDL1 (SPR analyte)): 29.8 nM
B5: TY22359 (bispecific antibody, human IgG1, kappa, N297A)
heavy: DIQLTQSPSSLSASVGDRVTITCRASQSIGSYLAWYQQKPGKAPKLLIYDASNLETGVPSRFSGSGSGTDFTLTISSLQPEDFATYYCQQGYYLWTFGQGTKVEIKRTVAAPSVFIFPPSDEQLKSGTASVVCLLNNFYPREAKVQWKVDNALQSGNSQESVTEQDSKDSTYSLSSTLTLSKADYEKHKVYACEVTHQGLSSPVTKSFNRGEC
light: EVQLVESGGGLVQPGGSLRLSCAASGFSLSTGGVGVGWIRQAPGKGLEWLALIDWADDKYYSPSLKSRLTISRDNSKNTLYLQLNSLRAEDTAVYYCARGGSDTVIGDWFAYWGQGTLVTVSSASTKGPSVFPLAPSSKSTSGGTAALGCLVKDYFPEPVTVSWNSGALTSGVHTFPAVLQSSGLYSLSSVVTVPSSSLGTQTYICNVNHKPSNTKVDKRVEPKSCDKTHTCPPCPAPELLGGPSVFLFPPKPKDTLMISRTPEVTCVVVDVSHEDPEVKFNWYVDGVEVHNAKTKPREEQYASTYRVVSVLTVLHQDWLNGKEYKCKVSNKALPAPIEKTISKAKGQPREPQVYTLPPSREEMTKNQVSLTCLVKGFYPSDIAVEWESNGQPENCYKTTPPVLDCDGSFFLYSKLTVDKSRWQQGNVFSCSVMHEALHNHYTQKSLSLSPGSGGGSGGGGSEVQLVESGGGLVQPGGSLRLSCAASGYSISSGYYWGWIRQAPGKCLEWIGIIYPSGGGTNYAQKFQGRVTISRDNSKNTLYLQLNSLRAEDTAVYYCARGGGLGFDYWGQGTLVTVSSGGGGSGGGGSGGGGSGGGGSDIQLTQSPSSLSASVGDRVTITCRASQSIPSFLNWYQQKPGKAPKLLIYAASSLQSGVPSRFSGSGSGTDFTLTISSLQPEDFATYYCQHYISWPRQFTFGCGTKVEIKR
notes: Morrison format: anti-CD137 Fab, anti-PDL1 scFv; also called CD137 × PDL1 bispecific antibody, format TYF05; Format 5

Kd [1]: 7 nM
Kd (Human PDL1 (SPR analyte)): 33.4 nM
B6: TY22177 (bispecific antibody, human IgG1, kappa, N297A)
heavy: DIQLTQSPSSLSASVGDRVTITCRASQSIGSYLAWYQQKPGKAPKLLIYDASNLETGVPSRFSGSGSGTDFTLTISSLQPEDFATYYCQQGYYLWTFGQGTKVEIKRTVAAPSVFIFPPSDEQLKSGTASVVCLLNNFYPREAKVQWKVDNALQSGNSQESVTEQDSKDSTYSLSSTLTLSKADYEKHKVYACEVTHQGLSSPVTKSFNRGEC
light: EVQLVESGGGLVQPGGSLRLSCAASGFSLSTGGVGVGWIRQAPGKGLEWLALIDWADDKYYSPSLKSRLTISRDNSKNTLYLQLNSLRAEDTAVYYCARGGSDTVIGDWFAYWGQGTLVTVSSASTKGPSVFPLAPSSKSTSGGTAALGCLVKDYFPEPVTVSWNSGALTSGVHTFPAVLQSSGLYSLSSVVTVPSSSLGTQTYICNVNHKPSNTKVDKRVEPKSCDKTHTCPPCPAPELLGGPSVFLFPPKPKDTLMISRTPEVTCVVVDVSHEDPEVKFNWYVDGVEVHNAKTKPREEQYASTYRVVSVLTVLHQDWLNGKEYKCKVSNKALPAPIEKTISKAKGQPREPQVYTLPPSREEMTKNQVSLTCLVKGFYPSDIAVEWESNGQPENCYKTTPPVLDCDGSFFLYSKLTVDKSRWQQGNVFSCSVMHEALHNHYTQKSLSLSPGSGGGSEVQLVESGGGLVQPGGSLRLSCAASGYSISSGYYWGWIRQAPGKCLEWIGIIYPSGGGTNYAQKFQGRVTISRDNSKNTLYLQLNSLRAEDTAVYYCARGGGLGFDYWGQGTLVTVSSGGGGSGGGGSGGGGSGGGGSDIQLTQSPSSLSASVGDRVTITCRASQSIPSFLNWYQQKPGKAPKLLIYAASSLQSGVPSRFSGSGSGTDFTLTISSLQPEDFATYYCQHYISWPRQFTFGCGTKVEIKR
notes: Morrison format: anti-CD137 Fab, anti-PDL1 scFv; IgG1 with N390C:S400'C and N297A; also called CD137 × PDL1 bispecific antibody, format TYF04

Kd [1]: 2.8 nM
Kd (Human PDL1 (SPR analyte)): 40.3 nM
B7: TY22362 (bispecific antibody, human IgG4 S228P, kappa)
heavy: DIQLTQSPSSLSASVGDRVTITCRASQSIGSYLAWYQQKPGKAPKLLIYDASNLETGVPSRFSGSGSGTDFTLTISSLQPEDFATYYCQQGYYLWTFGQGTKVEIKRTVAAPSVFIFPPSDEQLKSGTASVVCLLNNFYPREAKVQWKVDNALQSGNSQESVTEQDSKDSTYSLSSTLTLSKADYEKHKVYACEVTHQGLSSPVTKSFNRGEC
light: EVQLVESGGGLVQPGGSLRLSCAASGFSLSTGGVGVGWIRQAPGKGLEWLALIDWADDKYYSPSLKSRLTISRDNSKNTLYLQLNSLRAEDTAVYYCARGGSDTVIGDWFAYWGQGTLVTVSSASTKGPSVFPLAPCSRSTSESTAALGCLVKDYFPEPVTVSWNSGALTSGVHTFPAVLQSSGLYSLSSVVTVPSSSLGTKTYTCNVDHKPSNTKVDKRVESKYGPPCPPCPAPEFLGGPSVFLFPPKPKDTLMISRTPEVTCVVVDVSQEDPEVQFNWYVDGVEVHNAKTKPREEQFNSTYRVVSVLTVLHQDWLNGKEYKCKVSNKGLPSSIEKTISKAKGQPREPQVYTLPPSQEEMTKNQVSLTCLVKGFYPSDIAVEWESNGQPENCYKTTPPVLDCDGSFFLYSRLTVDKSRWQEGNVFSCSVMHEALHNHYTQKSLSLSLGSGGGSGGGGSEVQLVESGGGLVQPGGSLRLSCAASGYSISSGYYWGWIRQAPGKCLEWIGIIYPSGGGTNYAQKFQGRVTISRDNSKNTLYLQLNSLRAEDTAVYYCARGGGLGFDYWGQGTLVTVSSGGGGSGGGGSGGGGSGGGGSDIQLTQSPSSLSASVGDRVTITCRASQSIPSFLNWYQQKPGKAPKLLIYAASSLQSGVPSRFSGSGSGTDFTLTISSLQPEDFATYYCQHYISWPRQFTFGCGTKVEIKR
notes: Morrison format: anti-CD137 Fab, anti-PDL1 scFv; also called CD137 × PDL1 bispecific antibody, format TYF08
